# Source: the nanobody polyreactivity screen of Harvey et al. (2022)
# Test: yeast display, Sf9 membrane polyspecificity reagent, FACS + sequencing; frameworks hold sequencing errors
# Summary of the method: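 Nanobodies came from a synthetic yeast display library in Saccharomyces cerevisiae BJ5465, induced with galactose for 36–48 hours and stained for 1 hour at 4 °C with 10% biotinylated, detergent-solubilized Sf9 membrane reagent. Cells were enriched on streptavidin microbeads and then FACS-sorted, with low and high (top ~1%) gates set on anti-HA fluorescence for expression and streptavidin fluorescence for reagent binding. Each polyreactivity label reflects the gate a clone came from. Genes were amplified by colony PCR, sequenced by MiSeq 2 × 250 and filtered by CDR length.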
row,Sequence,polyreactivity (PSR sort gate)
1,QVQLVESGGGLVQAGGSLRLSCAASGITFPRYAMGWYRQAPGKERELVARISWGGGRTYYADSVKGRFTISRDNAKNTVYLPMNSLKPEDTAVYYSAARTWADPYGYWGQGTQVTVSS,high polyreactivity
2,QVQLVESGGGLVQAGGSLRLSCAASGITFPSYAMGWYRQAPGKEWELVATISRGDSTYYADSVKGRFTISRDNAKNTVYLQMNSLKPEDTAVYYCNARWWFQLYYYSTFAGYNYWGQGTQVTVSS,low polyreactivity
3,QVQLVESGGGLVQAGGSLRLSCAASGITFPYYAMGWSRQAPGKERELVAAISSSGGSTYYADSVKGRFTISRDNAKNTVYLQLNSLKPEDTAVYYCAAQRYINYDYWGQGTQVTVSS,high polyreactivity
4,QVQLVESGGGLVQAGGSLRLSCAASGITFQANAMGWYRQAPGKERELVAAISSSDGSTYYADSVKGRFTISRDNAKNTVYLQMNSLKPEDTAVYYCNVDYAQRVFLYDYWGQGTQVTVSS,low polyreactivity
5,QVQLVESGGGLVQAGGSLRLSCAASGITFQGYTMGWYRQAPGKEWELVAAISSNGGRTYYADSVKGRFTISRDNAKNTVYLQMNSLKPEDTAVYYCAARSFWTYRSGGPSDYYYWGQGTQVTVSS,high polyreactivity
6,QVQLVESGGGLVQAGGSLRLSCAASGITFQSNTMGCYRQAPGKERELVAAITWTGGRTYYADSVKGRFTISRDNAKNTVYLQMNSLKPEDTAVYYCNADGYAIGYNGKLDYWGQGTQVTVSS,high polyreactivity
7,QVQLVESGGGLVQAGGSLRLSCAASGITFQWYAMGWYRQAPGKERELVAGISSGGSTYYADSVKGRFTISRDNAKNTVYLQMNSLKPEDTAVYYCAADYGWYSPFYPSYKYEYWGQGTQVTVSS,low polyreactivity
8,QVQLVESGGGLVQAGGSLRLSCAASGITFRFNAMGWYRQAPGKEREFVAAITYSGDSTYYADSVKGRFTISRDNAKNTVYLQKNSLKPEDTAVYYCAADYYAISRRIFYYWGQGTQVTVSS,low polyreactivity
9,QVQLVESGGGLVQAGGSLRLSCAASGITFRGYTMGWYRQAPGKERELVARIRSSDGSTYYADSVKGRFTISRDNAKNTVYLQMNSLKPEDTAVYYCNADRRGRALKYYSWGQGTQVTVSS,low polyreactivity
10,QVQLVESGGGLVQAGGSLRLSCAASGITFRKYAMGWYRKAPGKERELVAAISVSGGSTYYADSVKGRFTISRDNAKNTVYLQMNSLKPEDTAVYYCATGRSTDKGYYYWGQGTQVTVSS,high polyreactivity
11,QVQLVESGGGLVQAGGSLRLSCAASGITFRRYTMGWYRQAPGKERELVAAITTNAGSTYYADSVKGRFTISRDNAKNTVYLQMNSLKPEDTAVYYCAARWYYPYRTRYSSSYGYWGQGTQVTVSS,high polyreactivity
12,QVQLVESGGGLVQAGGSLRLSCAASGITFRSYAMGWYRQAPGKDRELVAAISRTGGRTYYADSVKGRFTISRDNAKNTVYLQMNTLKAEDTAVYYCAAGGYSPYSLVGYDYWGQGTQVTVSS,high polyreactivity
13,QVQLVESGGGLVQAGGSLRLSCAASGITFRSYAMGWYRQAPGKERELVAAISTSGGRTYYADSVKGRFTISRDNAKNTVYLQMNSLKPEDTAVYYCNKVGAVYGYYAYGLGYWGQGTQVTVSS,high polyreactivity
14,QVQLVESGGGLVQAGGSLRLSCAASGITFRTNAMGSSRQAPGKERELVAAITTNGGNTYYADSVKGRFTISRDNAKNTVYLQMNSLKPEDTAVYYCNTATYVDSFPDPGDHWGQGTQVTVSS,low polyreactivity
15,QVQLVESGGGLVQAGGSLRLSCAASGITFRTNAMGWYRQAPGKERDLVAAIRTGYSTYYADSVKGRFTISRDNAKNPVYLQMNSLKPEDTAVYYCNAVRYSPVFRRKYDYWGQGTQVTVSS,high polyreactivity
16,QVQLVESGGGLVQAGGSLRLSCAASGITFRTNTMGWYRQAPGKERELVAAISRGGTSTYYADSVKGRFTISRDNAKNTVYLQMNSLKPEDTAVYYCAADTRFYSGRGTVSGDYWGQGTQVTVSS,low polyreactivity
17,QVQLVESGGGLVQAGGSLRLSCAASGITFRTNTMGWYRQAPGKERELVAAITRSGVTTYYADSVKGRFTISRDNAKNTVYLQMNSLKPEDTAVYYCAAKSFYAHYDYWGQGTQVTVSS,high polyreactivity
18,QVQLVESGGGLVQAGGSLRLSCAASGITFRTYAMGWYRQALGKERELVAVITWSGGRTYYADSVKGRFTISRDNANNTVYLQMHSLKPEDTAVYYCNALAYYIRYYYWGQGTQVTVSS,high polyreactivity
19,QVQLVESGGGLVQAGGSLRLSCAASGITFRTYAMGWYRQAPGKERELVAAITRGDSTYYADSVKGRFTISRDNAKNSVYLQMNSLKPEETAVYYCAKESYIVNSRYYTGKMYYWGQGTQVTVSS,low polyreactivity
20,QVQLVESGGGLVQAGGSLRLSCAASGITFRVYAMGWYRPAPGKERELVAAITSSGGSTYYADSVKGRFTISRDYAKNTVYLQMNSLKPEDTAVYYCNKVTYGYAYWRYDGYDYWGQGTQVTVSS,low polyreactivity
21,QVQLVESGGGLVQAGGSLRLSCAASGITFRVYVMGWYRQAPGKERELVAAITSGTSTYYADSVKGRITISRDNAKNTVYLQMNRLKPEDTAVYYCAALIFYGDYIEYDYWGQGTQVTVSS,low polyreactivity
22,QVQLVESGGGLVQAGGSLRLSCAASGITFRWYAMGWYRPAPGKEWELVAAMNSRGTSTYYADSVKGRFTISRDNAKNTVYLQMNSLKPEDTSVYYCAATYLYIHGGFRPQYDYWGQGTQVTVSS,high polyreactivity

row,Sequence,polyreactivity (PSR sort gate)
1,QVQLVESGGGLVQAGGSLRLSCAASGITFRYYAMGWYRQAPGKERELVARITTDGSTHYADSVKGRFTISRDNAKNTVYLQMNSLKPEDTAVYYCNARHRNLAEYDYWGQGTQVTVSS,low polyreactivity
2,QVQLVESGGGLVQAGGSLRLSCAASGITFRYYAMGWYRQAPGKERELVATISRGVRTNYADSVKGRFTISRDNAKNTVYLQMNSLKPEDTAVYYCNADYASARRYDYWGQGTQVTVSS,high polyreactivity
3,QVQLVESGGGLVQAGGSLRLSCAASGITFSDYAMGWYRQAPGKERELVAGITSGGSTYYADSVKGRFTISRDNAKNTVYLQMNSLKPEDTAVYYCAAVRRWKYDWGQGTQVTVSS,high polyreactivity
4,QVQLVESGGGLVQAGGSLRLSCAASGITFSGHAMGWYRQAPGKERELVAAITGSGGGTYYADSVMGRFTISRDNAKNTVYLQMNCLKPEDTAVYYCNADNYYYSGFDYWGQGTQVTVSS,low polyreactivity
5,QVQLVESGGGLVQAGGSLRLSCAASGITFSGNAMGWYRPATGKERELVAGISRRGGSTYYADSVKGRFTISRDNAKNTVYLEMNSLKPEDTAVYYCARQFRRYYYAGYRYDYWGQGTQVTVSS,high polyreactivity
6,QVQLVESGGGLVQAGGSLRLSCAASGITFSGNAMGWYRQAPGKERELVAAISGRGGSTYYADSVKGRFTISRDNAKNTVYLQMNSLKPEDTAVYYCAARVPSPYVATYYYWGQGTQVTVSS,high polyreactivity
7,QVQLVESGGGLVQAGGSLRLSCAASGITFSHNAMGWYRQAPGKERELVAAITRSGGSTYYADSVKGRFTISRDNAKNTVYLQMNSLKPEDTAVYYCATEDYYRQYGYWSLSRMDHWGQGTQVTVSS,low polyreactivity
8,QVQLVESGGGLVQAGGSLRLSCAASGITFSLYAMGWYRQAPGKERELVAAITRSGGSTYYADSVKGRFTISRDNAKNTVYLQMNSLKPEDTAVYYCAALRPGVRRYYYWGHGTQVTVSS,high polyreactivity
9,QVQLVESGGGLVQAGGSLRLSCAASGITFSRNAMGWYRQAPGKERELVAVISTRGGRTYYADSVKGRFTISRDNAKNTFYLQMNSLKPEDTAVYYCAASPDPYWRRMDYWGQGTQVTVSS,high polyreactivity
10,QVQLVESGGGLVQAGGSLRLSCAASGITFSRNGMGWYRQAPGKERELVAAISTSGDSTDYADSVKGRFTISRDNAKNTVYLQMNSLKPEDTAVYYCAASYAFLYYGYDSWGQGTQVTVSS,low polyreactivity
11,QVQLVESGGGLVQAGGSLRLSCAASGITFSRNTMGWYRQGPGKERELVAAITYSGGRTYYADSVKGRFTISRDNAKNTVYLQMNSLKPEDTAVYYCARRGTGKYPYYQHYYWGQGTQVTVSS,high polyreactivity
12,QVQLVESGGGLVQAGGSLRLSCAASGITFSRNVMGWYRQAPGKERELVAAISRSGGRTYYADSVKGRLTISRDNAKNTVYLQMNSLKPEDTAVYYCNRDIGGTSVLDDYWGQGTQVTVSS,low polyreactivity
13,QVQLVESGGGLVQAGGSLRLSCAASGITFSRYAMGWYRQAPGKERELVAAITWDGGRTYYADSVKGRFTISRDNAKNTVYLQMNSLKPEDTAVYYCAASRYSPVRWVWLYYWGQGTQVTVSS,high polyreactivity
14,QVQLVESGGGLVQAGGSLRLSCAASGITFSYNAMGWDRQAPGKERELVAAISSNSDSTYYADSVKGRFTISRDNAKNTVYLQMNSLKPEDTAVYYCAADTPDAPDYSGFYYWGQGTQVTVSS,low polyreactivity
15,QVQLVESGGGLVQAGGSLRLSCAASGITFSYNAMGWYRQAPGKEREFVAAISSNSDSTYYADSVKGRFTISRDTAKITVYLQMNSLKPEDTAVYYCAADTPDAPDYSGFYYWGQGTQVTVSS,low polyreactivity
16,QVQLVESGGGLVQAGGSLRLSCAASGITFSYNAMGWYRQAPGKERELVAAIRVGDGSTYYADSVKGRFTISRDNAKNTVYLQMNSLKPEDTAVNYCNARYLRLRYPYTDEYNYWGQGTQVTVSS,low polyreactivity
17,QVQLVESGGGLVQAGGSLRLSCAASGITFSYYAMGWYRPAPGKERELVAAISRTGTSTYYADSVKGRFTISRDNAKNTVYFQMNSLKPEDTAVYYCAAVPRHPYHDKYDYWGQGTQVTVSS,high polyreactivity
18,QVQLVESGGGLVQAGGSLRLSCAASGITFSYYAMGWYRQAPGKEREFVAAISWSGGSTYYADSVKGRFTISRDNAKNTVYLQMNSLKPEDTAVYYCAADRYPYGLDYWGQGTQVTVSS,high polyreactivity
19,QVQLVESGGGLVQAGGSLRLSCAASGITFSYYAMGWYRQAPGKERELVAAISRTGTSTYYADSVKGRFTISRDNAKNTVYLQMKSLKPEDTAVYDCAAVPRHPYHDKYDYWGQGTQVTVSS,high polyreactivity
20,QVQLVESGGGLVQAGGSLRLSCAASGITFTDYAMGWYRQAPGKERELVAAITGSGTSTYYADSVKGRFTISRDNAKNTVYLQMNSLKPEDTAVYYCAARTRGTAYNYWGQGTQVTVSS,high polyreactivity
21,QVQLVESGGGLVQAGGSLRLSCAASGITFTDYDMGWYRQAPGKERELVAAISNGGGSTYYADSVKGRFTISRDNAKNTVYLQMYSMKPEDTAVYYCAAERVPSWWVEWGVAQWDDYWGQGTQVTVSS,low polyreactivity
